± gives the standard deviation of the averaged measurements.
test system: ATP; experiment: switch fluorescence ratio, 500 uM ATP over buffer (Cy3 cluster intensity, sum of 5 cycles each) (fold (ratio)); higher = stronger signal-on switching upon ATP binding; sequences stand for … in TCGTCGGCAGCGTCAGATGTGTATAAGAGACAGTTTTTTTTTTTTTTTTTTTTTTTTT…TC; conditions: aptamer strand: ATP DNA aptamer (quencher-CACCTGGGGGAGTATTGCGGAGGAAGG + anchor), 100 nM annealed; ATP concentration: 500 uM
Method in brief: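 Switching-strand clusters labelled with Cy3 on a modified Illumina MiSeq flow-cell were annealed to 100 nM quencher-labelled ATP aptamer, imaged in selection buffer, and re-imaged after 15 min with 500 uM ATP at 22 °C. This was done over five cycles with NaOH stripping and re-annealing in between. The fluorescence ratio is summed target-cycle over summed buffer-cycle Cy3 intensity per cluster, averaged per switch-domain sequence, excluding clusters outside 100-1000 RFU.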
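Note: ATP exposure 15 min at 22 °C before imaging.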

Row | Sequence | switch fluorescence ratio
1 | TACAGCTGTG | 0.9865 ± 0.0083
2 | TACAGTTGGC | 1.03 ± 0.084
3 | TACATACTCT | 1.29 ± 0.023
4 | TACATAGGTT | 1.048 ± 0.006
5 | TACATGGGTG | 1.01 ± 0.054
6 | TACATGTGCT | 0.996 ± 0.035
7 | TACATTGACG | 1.025 ± 0.0089
8 | TACCAAAGGT | 1.02 ± 0.031
9 | TACCAAGGGA | 0.991 ± 0.00097
10 | TACCACGTTG | 1 ± 0.009
11 | TACCAGCCGA | 1.06 ± 0.043
12 | TACCATGGCG | 0.9983 ± 0.0058
13 | TACCCAAAAT | 1.1 ± 0.15
14 | TACCCAGATT | 1.66 ± 0.98
15 | TACCCATTAC | 1.72 ± 0.041
16 | TACCCGGACA | 1.091 ± 0.0053
17 | TACCGGGCAC | 1.11 ± 0.03
18 | TACCGTATTT | 1.04 ± 0.027
19 | TACCTAGAAC | 1.07 ± 0.056
20 | TACCTGAAAA | 0.985 ± 0.022
21 | TACCTGCAGC | 1.12 ± 0.064
22 | TACCTGCCGG | 1.08 ± 0.026
23 | TACCTTGAGC | 0.9999 ± 0.0034
24 | TACGAAATGT | 1.041 ± 0.0098
25 | TACGAACTAT | 1.33 ± 0.052

Row | Sequence | switch fluorescence ratio
26 | TACGAATAGA | 1.056 ± 0.0097
27 | TACGAATATT | 1.025 ± 0.0046
28 | TACGACGGGC | 1.57 ± 0.5
29 | TACGAGCCAC | 1.31 ± 0.032
30 | TACGAGCCGC | 0.989 ± 0.057
31 | TACGAGGTTG | 1 ± 0.02
32 | TACGAGTCGT | 1.01 ± 0.022
33 | TACGATGACT | 1.19 ± 0.11
34 | TACGATGAGT | 0.996 ± 0.02
35 | TACGATGGTA | 0.9792 ± 0.0049
36 | TACGCCGGAA | 1.33 ± 0.37
37 | TACGCTGCAG | 1.05 ± 0.049
38 | TACGGCCGAG | 1 ± 0.0029
39 | TACGGCGGGG | 1.02 ± 0.047
40 | TACGGGATGG | 0.989 ± 0.029
41 | TACGGGCGGA | 1.02 ± 0.034
42 | TACGGGGGAT | 1.02 ± 0.054
43 | TACGGGTATA | 1.01 ± 0.025
44 | TACGGTGGGT | 0.982 ± 0.032
45 | TACGTACGTT | 1.41 ± 0.062
46 | TACGTAGGCA | 1.073 ± 0.0077
47 | TACGTGCATA | 1.122 ± 0.0033
48 | TACGTGGCTG | 1.05 ± 0.073
49 | TACGTGGTAG | 1.06 ± 0.05
50 | TACGTTGAGC | 1.02 ± 0.02

Row | Sequence | switch fluorescence ratio
51 | TACTAACCTT | 1.43 ± 0.18
52 | TACTAATGTT | 1.03 ± 0.044
53 | TACTAGGCTG | 0.992 ± 0.081
54 | TACTATATGG | 1.03 ± 0.011
55 | TACTATGTGG | 1.013 ± 0.0014
56 | TACTCCGTTT | 2.15 ± 0.34
57 | TACTCGAGTT | 0.977 ± 0.015
58 | TACTCGCCGT | 1.053 ± 0.0064
59 | TACTCGGGGT | 1.004 ± 0.0064
60 | TACTCTGGTG | 1.43 ± 0.019
61 | TACTGACGGT | 1.4 ± 0.032
62 | TACTGCTCTA | 1.022 ± 0.01
63 | TACTGTATTG | 1.03 ± 0.13
64 | TACTGTGGGT | 0.9726 ± 0.0035
65 | TACTGTGTCT | 0.98144 ± 0.00053
66 | TACTTAATGT | 1.032 ± 0.0033
67 | TACTTACTAA | 1.19 ± 0.036
68 | TACTTAGCCC | 1.07 ± 0.022
69 | TACTTGAGTA | 1.0026 ± 0.00022
70 | TACTTGATCT | 1.001 ± 0.0033
71 | TACTTGGGAG | 1.027 ± 0.0036
72 | TACTTGTTTT | 1 ± 0.033
73 | TACTTTCGTA | 0.983 ± 0.011
74 | TACTTTGCTC | 1.03 ± 0.016
75 | TACTTTGGTT | 0.975 ± 0.038

Row | Sequence | switch fluorescence ratio
76 | TAGAAAAAGC | 0.9717 ± 0.0093
77 | TAGAAACGAG | 1.02 ± 0.087
78 | TAGAAAGTGC | 1.02 ± 0.099
79 | TAGAAATACT | 1.54 ± 0.2
80 | TAGAAATGGT | 0.994 ± 0.041
81 | TAGAACTGGG | 1.05 ± 0.037
82 | TAGAAGGAAA | 0.9997 ± 0.0017
83 | TAGAAGGAAT | 1.05 ± 0.044
84 | TAGAAGTGCG | 1.01 ± 0.041
85 | TAGAATGGC | 1.01 ± 0.054
86 | TAGAATGGCT | 0.9907 ± 0.0057
87 | TAGAATGTT | 1.01 ± 0.015
88 | TAGAATTACT | 1.05 ± 0.056
89 | TAGAATTCTT | 0.997 ± 0.078
90 | TAGAATTTTT | 0.998 ± 0.017
91 | TAGACAGGGG | 1 ± 0.037
92 | TAGACGAAAA | 1.03 ± 0.024
93 | TAGACGGATT | 1.04 ± 0.066
94 | TAGACTCGGT | 0.993 ± 0.053
95 | TAGACTGGGG | 0.966 ± 0.11
96 | TAGACTGGTG | 1.01 ± 0.017
97 | TAGACTTGTT | 0.996 ± 0.02
98 | TAGAGAGGGA | 1.04 ± 0.096
99 | TAGAGAGGGT | 0.995 ± 0.035
100 | TAGAGATTTT | 1 ± 0.046

Row | Sequence | switch fluorescence ratio
101 | TAGAGGAGTT | 0.951 ± 0.051
102 | TAGAGGATCA | 1 ± 0.056
103 | TAGAGGGAGG | 0.967 ± 0.014
104 | TAGAGGGCAG | 1.03 ± 0.023
105 | TAGAGGGGGG | 0.985 ± 0.038
106 | TAGAGGTGTG | 0.99 ± 0.019
107 | TAGAGTTGGG | 0.986 ± 0.015
108 | TAGATAGAGG | 0.961 ± 0.016
109 | TAGATATTGG | 1.01 ± 0.016
110 | TAGATCATGC | 0.994 ± 0.024
111 | TAGATCTTAC | 1.05 ± 0.046
112 | TAGATGACGG | 1.01 ± 0.041
113 | TAGATGCCAG | 1.07 ± 0.039
114 | TAGATGGGAT | 0.976 ± 0.014
115 | TAGATGGGGA | 0.977 ± 0.035
116 | TAGATTCTGT | 0.9951 ± 0.0032
117 | TAGATTGTGT | 0.998 ± 0.027
118 | TAGATTTGGG | 0.967 ± 0.0089
119 | TAGATTTT | 0.9953 ± 0.007
120 | TAGCAATTAT | 1.81 ± 0.085
121 | TAGCAATTTG | 1.05 ± 0.053
122 | TAGCAGTGGG | 0.973 ± 0.015
123 | TAGCCCTGCT | 1.033 ± 0.0087
124 | TAGCCGATGG | 0.994 ± 0.027
125 | TAGCCTAGTT | 0.963 ± 0.022

Row | Sequence | switch fluorescence ratio
126 | TAGCGCAATT | 1.74 ± 0.22
127 | TAGCGGAAAA | 1.018 ± 0.0026
128 | TAGCGGAGGC | 1.03 ± 0.03
129 | TAGCGGGCTT | 0.983 ± 0.025
130 | TAGCGTAAAT | 0.9913 ± 0.0049
131 | TAGCTAGTAT | 1.63 ± 0.95
132 | TAGCTCGGGG | 1.03 ± 0.035
133 | TAGCTGAGGG | 0.997 ± 0.015
134 | TAGCTGAGTG | 0.985 ± 0.043
135 | TAGCTTATAA | 1.08 ± 0.024
136 | TAGCTTGGCA | 0.991 ± 0.048
137 | TAGCTTGGTG | 1.04 ± 0.015
138 | TAGCTTGTCA | 0.9884 ± 0.0065
139 | TAGCTTGTTT | 1.02 ± 0.022
140 | TAGCTTTGGG | 1 ± 0.011
141 | TAGGAAGGAG | 0.98 ± 0.06
142 | TAGGAAGGCG | 1.01 ± 0.047
143 | TAGGAATGTT | 0.9659 ± 0.0022
144 | TAGGACGTGG | 0.988 ± 0.061
145 | TAGGACTCGG | 0.989 ± 0.024
146 | TAGGAGGAGT | 0.951 ± 0.017
147 | TAGGAGGGAG | 1.02 ± 0.031
148 | TAGGAGGGGC | 0.958 ± 0.12
149 | TAGGAGTAAT | 1.012 ± 0.0047
150 | TAGGAGTGAA | 0.9792 ± 0.0021

Row | Sequence | switch fluorescence ratio
151 | TAGGATACGG | 0.995 ± 0.012
152 | TAGGATGTGT | 1 ± 0.0056
153 | TAGGATTGCT | 1 ± 0.021
154 | TAGGATTTTG | 0.985 ± 0.033
155 | TAGGCAGAGT | 1.01 ± 0.023
156 | TAGGCATCGT | 0.969 ± 0.019
157 | TAGGCGGTGT | 1.01 ± 0.012
158 | TAGGCGTGCT | 0.987 ± 0.013
159 | TAGGCTGCGA | 1.04 ± 0.025
160 | TAGGCTTAGG | 1.029 ± 0.0019
161 | TAGGGAAAAG | 0.99 ± 0.013
162 | TAGGGAAATA | 1 ± 0.051
163 | TAGGGACGGG | 1.07 ± 0.087
164 | TAGGGAGAAA | 1.46 ± 0.64
165 | TAGGGAGGCG | 0.962 ± 0.063
166 | TAGGGCACA | 1.1 ± 0.057
167 | TAGGGCCGTG | 0.977 ± 0.0059
168 | TAGGGCGCGG | 0.9403 ± 0.0034
169 | TAGGGCGGGA | 0.946 ± 0.052
170 | TAGGGCTGGC | 1 ± 0.08
171 | TAGGGCTGTA | 0.993 ± 0.049
172 | TAGGGGAATC | 0.992 ± 0.02
173 | TAGGGGAATG | 1.02 ± 0.098
174 | TAGGGGAATT | 0.967 ± 0.039
175 | TAGGGGAGC | 1.01 ± 0.045

Row | Sequence | switch fluorescence ratio
176 | TAGGGGAGCA | 1.01 ± 0.044
177 | TAGGGGATAT | 0.964 ± 0.025
178 | TAGGGGCAGG | 1.07 ± 0.022
179 | TAGGGGCCGT | 1.02 ± 0.05
180 | TAGGGGCCTA | 0.995 ± 0.011
181 | TAGGGGCGTG | 0.998 ± 0.039
182 | TAGGGGGAAT | 1.01 ± 0.054
183 | TAGGGGGATG | 0.997 ± 0.028
184 | TAGGGGGCAT | 1.01 ± 0.043
185 | TAGGGGGCGG | 0.988 ± 0.03
186 | TAGGGGGCTC | 0.959 ± 0.02
187 | TAGGGGGGAA | 1 ± 0.023
188 | TAGGGGGGCC | 0.9669 ± 0.0015
189 | TAGGGGGGGA | 1.01 ± 0.018
190 | TAGGGGGGGT | 1 ± 0.031
191 | TAGGGGGT | 0.985 ± 0.027
192 | TAGGGGGTAA | 0.997 ± 0.039
193 | TAGGGGGTCG | 0.971 ± 0.042
194 | TAGGGGGTTC | 1.01 ± 0.027
195 | TAGGGGTAGG | 1.02 ± 0.021
196 | TAGGGGTTAG | 0.9808 ± 0.0098
197 | TAGGGGTTCT | 1.01 ± 0.061
198 | TAGGGGTTGG | 0.987 ± 0.03
199 | TAGGGGTTTG | 0.979 ± 0.027
200 | TAGGGTAAAT | 0.985 ± 0.012

From the supplement of paper PMC10126150
